From FireProtDB (doi:10.1021/cb5003762) come the findings set out here.

“And” between values parts separate entries of the source, which are not always exact repeats. Identical values can stand only once.

First the molecules themselves.
B1: Histone deacetylase 8, Q9BY41 (parent)
chain: MEEPEEPADSGQSLVPVYIYSPEYVSMCDSLAKIPKRASMVHSLIEAYALHKQMRIVKPKVASMEEMATFHTDAYLQHLQKVSQEGDDDHPDSIEYGLGYDCPATEGIFDYAAAIGGATITAAQCLIDGMCKVAINWSGGWHHAKKDEASGFCYLNDAVLGILRLRRKFERILYVDLDLHHGDGVEDAFSFTSKVMTVSLHKFSPGFFPGTGDVSDVGLGKGRYYSVNVPIQDGIQDEKYYQICESVLKEVYQAFNPKAVVLQLGADTIAGDPMCSFNMTPVGIGKCLKYILQWQLATLILGGGGYNLANTARCWTYLTGVILGKTLSSEIPDHEFFTAYGPDYVLEITPSCRPDRNEPHRIQQILNYIKGNLKHVV

In the data set the parent is B1. As to conditions: Homo sapiens; pH 7.5; Thermal; fluorescence; Hepes 25 mM; KCl 150 mM; structure 2V5W; whole UniProt chain shown.
Usually Tm stands for the temperature at the midpoint of the melting transition. A188T: the Tm was 46.5 °C and 50.6 °C.

As to C153F, the Tm was 50.6 °C.
